According to US20210285024:

Experiments:
[1] = target: human tubulin purified from HEK293 cells
[2] = target: tubulin purified from Spodoptera Frugiperda Sf9 cells (fully tyrosinated; used as purified tubulin or polymerised microtubules)

B1: recombinant SVBP-VASH2 complex (protein)
chain 1: not shown
chain 2: MDPPARKEKTKVKESVSRVEKAKQKSAQQELKQRQRAEIYALNRVMTELEQQQFDEFCKQMQPPGE
detyrosination assay (western blot, relative optical density detyrosination/tubulin) [1]: the fold induction of the tubulin detyrosination resulting from SVBP-VASH2 complex was significantly lower with human tubulin purified from HEK293 cells in comparison to the one obtained using Sf9 cells extracted tubulin
detyrosination assay (western blot, relative optical density detyrosination/tubulin) [2]: SVBP-VASH2 complex strongly induced detyrosination in the assay
